Where “and” joins values, the source holds several entries; their conditions need not be identical. Identical values can stand only once.
Target: recombinant SARS (1-1190) (Beta Lifescience, BLIT-0210) (SARS-CoV), P59594
Settings: remark: other sources report otherwise

B1: clone 6D9 (antibody, V domains shown)
VH: EVQLVESGGGLVQPGGSLRLSCAASGFTFTDYDMGWVRQAPGKGPEWVSLISGDSGNTWYDDSVKGRFTISRDNSKNTLYLQMNSLRAEDTAVYYCAKYRGTTKDYWGQGTLVTVSS
Question: B1 was tested. Which O.D. did it give?
Answer: 0.389 O.D. and 0.386 O.D.

B2: clone 5E9 (antibody, V domains shown)
VH: EVQLVESGGGLVQPGGSLRLSCAASGFTFTTYDMGWVRQAPGKGPEWVSLISSGGSNTWYDDSVKGRFTISRDNSKNTLYLQMNSLRAEDTAVYYCAKEKYPYSDCDYWGQGTLVTVSS
Question: For B2, which O.D. is on record?
Answer: 0.294 O.D. and 0.278 O.D.

— patent US20230417748A1
